Experimental data from the supplement of paper PMC9732359.
± gives the uncertainty stated by the source.

Test: protein stability index of a GFP-peptide fusion (yeast GPS) (PSI 1-4); higher = more stable; sorted into four equal gates, so the index is relative within each strain
Procedure, shortened: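 Tiled yeast protein peptides of 17 residues were each joined downstream of GFP, on plasmids that also express Cherry. The pooled library was maintained in yeast, and mid-log cultures in leucine-free medium were sorted into four equal gates on the GFP/Cherry ratio. Plasmids from every gate were amplified by PCR and sequenced on Illumina, with barcodes linking reads to strains. The protein stability index of a peptide is its gate-number-weighted read frequency summed over the gates.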

Sequence	protein stability index (san1∆)	protein stability index (doa10∆)	protein stability index (pdr5∆)	protein stability index (ubr1∆)
QREFKEIMEERNVEQKL [NNF1]	2.79 ± 0.24			
TEGHKGHEELKRRIEEE [ISW2]	3.11 ± 0.068	3.33 ± 0.085	3.42 ± 0.09	3.23 ± 0.065
ETRAELSQLCAVPLQIV [RPO21]	2.24 ± 0.21	1.96 ± 0.087	2.32 ± 0.14	2.71 ± 0.19
RFPETMDETQTRAKIGG [RPO21]	2.69 ± 0.24	3.17 ± 0.26		3.42 ± 0.13
ENSGKEMDEKSYEKNED [LIN1]	3.33 ± 0.14	3.64 ± 0.28	3.29 ± 0.12	3.16 ± 0.11
LENSSRSPRVVTNALDN [NUT1]	2.279 ± 0.016	2.85 ± 0.06	2.51 ± 0.058	2.74 ± 0.057
TNRHTLALETVLIKMVK [SIR3]	2.61 ± 0.069	2.84 ± 0.11	2.86 ± 0.072	2.88 ± 0.054
VRVQRQKKILSIRLKVP [RPL8A]	1.26 ± 0.054	1.49 ± 0.032	1.28 ± 0.032	1.25 ± 0.025
VGDVVGGALDNPFEDDM [BRN1]	3.58 ± 0.21		3.37 ± 0.15	3.16 ± 0.11
TVTLNKNREVVQVSKAG [RRP45]	2.76 ± 0.065	2.8 ± 0.092	2.98 ± 0.075	2.82 ± 0.065
QESFNSVQNLDQLLTDL [NUT1]	3.04 ± 0.049	3.22 ± 0.092	3.2 ± 0.095	3.17 ± 0.068
PRLGSIDRNLKCQTCQE [RPO21]	2.18 ± 0.12	2.01 ± 0.099	1.7 ± 0.056	2.67 ± 0.069
VIRIPMQENDKINQERL [CSI1]	2.37 ± 0.11	2.42 ± 0.083	2.83 ± 0.085	2.82 ± 0.072
KTYNCLHEKYLTEGGSI [SMC1]	2.52 ± 0.076	3.03 ± 0.14	3.05 ± 0.072	2.98 ± 0.069
SDDYDNEGAASSNPQSA [SMC1]	2.65 ± 0.12	2.91 ± 0.16	3.42 ± 0.13	3.13 ± 0.051
TAETNNKVHETSSKSSS [YDL088C/ASM4]	2.84 ± 0.039	2.86 ± 0.039	2.96 ± 0.045	2.89 ± 0.032
DPWNKLKHTDYWYEQDS [RPB3]				2.99 ± 0.12
ESSHEQEEFVQFLQLDN [ECM29]	3.22 ± 0.16	3.5 ± 0.21	3.31 ± 0.13	3.29 ± 0.14
TDSDFAKYHAKLNKKLQ [SRP68]	2.84 ± 0.043	2.97 ± 0.059	3.12 ± 0.055	3 ± 0.05
LRNLHMKRMVAQWERSK [SNF12]	2.89 ± 0.067	2.88 ± 0.076	2.89 ± 0.1	2.88 ± 0.086
EARFDVLITSYEMVIRE [ISW2]	1.88 ± 0.11	1.87 ± 0.094	1.49 ± 0.089	2.02 ± 0.11
SGNNNGGFTNLTSQAPQ [YDL088C/ASM4]	3.16 ± 0.054	3.24 ± 0.071	3.31 ± 0.053	3.29 ± 0.042
FSEGTSADREIQRTLME [RPT4]	3.29 ± 0.091	3.41 ± 0.14	3.46 ± 0.084	3.1 ± 0.087
QVIVDIFSVHGNTVVDG [YCG1]	1.4 ± 0.2	2.08 ± 0.11	2.12 ± 0.068	2.34 ± 0.035
IIRQLSELNEGNLSKRE [SRB8]	3.4 ± 0.1	3.18 ± 0.12	3.53 ± 0.11	3.42 ± 0.27

Sequence	protein stability index (san1∆)	protein stability index (doa10∆)	protein stability index (pdr5∆)	protein stability index (ubr1∆)
RLKFGHRLIATHTNLER [SNF2]	2.29 ± 0.067	2.41 ± 0.064	2.04 ± 0.054	2.5 ± 0.045
NLNELESQLQMDRTSLR [SMC3]	2.5 ± 0.22	2.57 ± 0.15	2.59 ± 0.16	
PLDRLENVLAIGIAGAH [SKI6]	1.54 ± 0.18	1.26 ± 0.085	1.78 ± 0.092	1.85 ± 0.12
LTNQQPKNLSTPSTSSN [CSE2]	2.67 ± 0.066	2.94 ± 0.067	2.84 ± 0.068	2.79 ± 0.059
ETDDNIETVMTQEQFVK [SRB4]	2.6 ± 0.2		3.23 ± 0.17	
MSNKVKTKAMVPPINCI [SME1]	2.64 ± 0.05	2.42 ± 0.057	2.35 ± 0.053	2.57 ± 0.035
NDLHHSEKKYAEEDQVQ [RPN3]	2.99 ± 0.13	2.85 ± 0.1	3.3 ± 0.16	2.98 ± 0.21
SIKSKVVDHHVENELLQ [RRP42]	2.82 ± 0.17	3.38 ± 0.13	3.24 ± 0.2	
KEEVCQGMEGTVDLALF [YMR129W/POM152]	3.26 ± 0.2	3.45 ± 0.21	3.44 ± 0.27	
DDEKNDKQARKQRTKKE [SNF2]	3.06 ± 0.088	3.35 ± 0.3	3.53 ± 0.11	3.18 ± 0.1
QQQIIKIRITLTSTKVK [RPS20]	1.59 ± 0.1	1.91 ± 0.056	1.84 ± 0.048	2.71 ± 0.043
EGKSVDELITEGNEKLA [RPP2A]	3.41 ± 0.074		3.23 ± 0.16	3.45 ± 0.28
DEKGNEIKVGKQRFQGC [ARP9]	3.06 ± 0.1	2.88 ± 0.18	3.1 ± 0.17	3.41 ± 0.1
SSSIKSTGPTGAVSLNP [RRP4]	3.231 ± 0.027	3.24 ± 0.035	3.37 ± 0.048	3.151 ± 0.031
CRVCSSHTGLIRKYGLN [RPS29A]	1.48 ± 0.15	1.5 ± 0.13	1.53 ± 0.1	1.59 ± 0.069
KKRKAGRPRGRPKKVKL [SNF2]	2.96 ± 0.21		3.09 ± 0.12	2.9 ± 0.11
SKSVPTPSLPIAPPVAP [SNF5]	3.1 ± 0.045	2.74 ± 0.057	2.81 ± 0.061	2.55 ± 0.061
MSSTNGNAPATPSSDQN [SOH1]	3.2 ± 0.058	3.17 ± 0.09	2.75 ± 0.1	3.11 ± 0.1
EEEKELTEEELKTRYVG [RPN11]	3.4 ± 0.067	3.68 ± 0.2	3.44 ± 0.12	3.5 ± 0.14
TSPIDIREKVAKQALDL [SNF2]	2.81 ± 0.13	3.28 ± 0.14	3.17 ± 0.19	2.69 ± 0.15
KQQDAEELFTQLFHSMS [UBP6]	3.03 ± 0.088	3.25 ± 0.059	3.31 ± 0.088	3.14 ± 0.061
ARCYRYQKNKPYPKSRY [RPL10]	2.41 ± 0.055	2.3 ± 0.064	2.38 ± 0.065	2.77 ± 0.057
QVLVTTNQDGLKFVKVR [RPB2]	1.69 ± 0.14	1.41 ± 0.075	1.78 ± 0.1	1.33 ± 0.11
TEDIRIRAQNFKSALAN [RRP6]	2.56 ± 0.1	2.35 ± 0.067	2.41 ± 0.091	2.73 ± 0.053
DANLNDLPETGFFENIE [IRR1]	3.35 ± 0.1	3.13 ± 0.2	3.24 ± 0.13	3.27 ± 0.12
